Data reported in patent publication US20230374153A1 (PARADIGM IMMUNOTERAPEUTICS, published 2023).

Experiments:
[1] = biological target: T1, FcRn (neonatal Fc receptor) (UniProt P55899 24-297; P61769 21-119); test: SPR (Biacore, ACRO Biosystems), pH 6.0
T1 construct: also called FCGRT; purified FcRn receptor

[2] = biological target: T1, FcRn (neonatal Fc receptor)

T1 sequence (P55899 24-297 limits assumed, chain 1 of 2): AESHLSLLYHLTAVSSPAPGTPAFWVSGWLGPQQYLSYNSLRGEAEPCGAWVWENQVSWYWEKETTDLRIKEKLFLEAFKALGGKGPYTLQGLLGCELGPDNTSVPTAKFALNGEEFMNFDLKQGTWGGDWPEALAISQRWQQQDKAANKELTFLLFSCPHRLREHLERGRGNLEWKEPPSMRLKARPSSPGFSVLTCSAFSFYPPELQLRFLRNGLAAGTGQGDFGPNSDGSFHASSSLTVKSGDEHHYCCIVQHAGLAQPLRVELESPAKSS
T1 sequence (P61769 21-119 limits assumed, chain 2 of 2): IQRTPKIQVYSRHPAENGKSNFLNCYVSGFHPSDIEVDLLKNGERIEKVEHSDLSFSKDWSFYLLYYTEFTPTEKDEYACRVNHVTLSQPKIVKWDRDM

Row | Binder | Kd [1] | koff [2] | kon [2]
1 | ACE2 LVE IgG Fc STR chimeric antibody (LiVE) (Fc fusion) QSTIEEQAKLFLDKFNVEAEDLFYQSSLASWNYNTNITEENVQNMNNAGDKWSAFLKEQSTLAQMYPLQEIQELTVKLQLQALQQNGSSVLSEDKSKRLNTILNTMSTIYSTGKVCNPDNPQECLLLEPGLNEIMANSLDYNERLWAWESWRSEVGKQLRPLYEEYVVLKNEMARANHYEDYGDYWRGDYEVNGVDGYDYSRGQLIEDVEHTFEEIKPLYEHLHAYVRAKLMNAYPSYISPIGCLPAHLLGDMWGRFWTNLYSLTVPFGQKPNIDVTDAMVDQAWDAQRIFKEAEKFFVSVGLPNMTQGFWENSMLTDPGNVQKAVCHPTAWDLGKGDFRILMCTKVTMDDFLTAHHEMGHIQYDMAYAAQPFLLRNGANEGFHEAVGEIMSLSAATPKHLKSIGLLSPDFQEDNETEINFLLKQALTIVGTLPFTYMLEKWRWMVFKGEIPKDQWMKKWWEMKREIVGVVEPVPHDETYCDPASLFHVSNDYSFIRYYTRTLYQFQFQEALCQAAKHEGPLHKCDISNSTEAGQKLFNMLRLGKSEPWTLALENVVGAKNMNVRPLLNYFEPLFTWLKDQNKNSFVGWSTDWSPYADQSIKVRISLKSALGDKAYEWNDNEMYLFRSSVAYAMRQYFLKVKNQMILFGEEDVRVANLKPRISFNFFVTAPKNVSDIIPRTEVEKAIRMSRSRINDAFRLNDNSLEFLGIQPTLGPPNQPPVSGGGGSGGGGSDKTHTCPPCPAPESTRGPSVFLFPPKPKDTLMISRTPEVTCVVVDVSHEDPEVKFNWYVDGVEVHNAKTKPREEQYNSTYRVVSVLTVLHQDWLNGKEYKCKVSNKALPAPIEKTISKAKGQPREPQVYTLPPSRDELTKNQVSLTCLVKGFYPSDIAVEWESNGQPENNYKTTPPVLDSDGSFFLYSKLTVDKSRWQQGNVFSCSVMHEALHNHYTQKSLSLSPGK | 517 nM | – | –
2 | ACE2 LVE IgG Fc STR YTE chimeric antibody (LiVE Longer) (Fc fusion) QSTIEEQAKLFLDKFNVEAEDLFYQSSLASWNYNTNITEENVQNMNNAGDKWSAFLKEQSTLAQMYPLQEIQELTVKLQLQALQQNGSSVLSEDKSKRLNTILNTMSTIYSTGKVCNPDNPQECLLLEPGLNEIMANSLDYNERLWAWESWRSEVGKQLRPLYEEYVVLKNEMARANHYEDYGDYWRGDYEVNGVDGYDYSRGQLIEDVEHTFEEIKPLYEHLHAYVRAKLMNAYPSYISPIGCLPAHLLGDMWGRFWTNLYSLTVPFGQKPNIDVTDAMVDQAWDAQRIFKEAEKFFVSVGLPNMTQGFWENSMLTDPGNVQKAVCHPTAWDLGKGDFRILMCTKVTMDDFLTAHHEMGHIQYDMAYAAQPFLLRNGANEGFHEAVGEIMSLSAATPKHLKSIGLLSPDFQEDNETEINFLLKQALTIVGTLPFTYMLEKWRWMVFKGEIPKDQWMKKWWEMKREIVGVVEPVPHDETYCDPASLFHVSNDYSFIRYYTRTLYQFQFQEALCQAAKHEGPLHKCDISNSTEAGQKLFNMLRLGKSEPWTLALENVVGAKNMNVRPLLNYFEPLFTWLKDQNKNSFVGWSTDWSPYADQSIKVRISLKSALGDKAYEWNDNEMYLFRSSVAYAMRQYFLKVKNQMILFGEEDVRVANLKPRISFNFFVTAPKNVSDIIPRTEVEKAIRMSRSRINDAFRLNDNSLEFLGIQPTLGPPNQPPVSGGGGSGGGGSDKTHTCPPCPAPESTRGPSVFLFPPKPKDTLYITREPEVTCVVVDVSHEDPEVKFNWYVDGVEVHNAKTKPREEQYNSTYRVVSVLTVLHQDWLNGKEYKCKVSNKALPAPIEKTISKAKGQPREPQVYTLPPSRDELTKNQVSLTCLVKGFYPSDIAVEWESNGQPENNYKTTPPVLDSDGSFFLYSKLTVDKSRWQQGNVFSCSVMHEALHNHYTQKSLSLSPGK | 26.7 nM | 0.00412 s⁻¹ | 155000 M⁻¹ s⁻¹
